Here are results for six molecules from patent EP4640700A1 (Harbour Biomed (Shanghai) Co., Ltd, dated 2025).

One test has as its target PSMA (UniProt Q04609 1-750). Description: cell-based or functional assay.
In another test the target is human ROR1 (human, UniProt Q01973 30-937). Description: cell-based or functional assay.
A further test deals with T1, BCMA (UniProt Q02223 1-184).
T1 sequence (looked up): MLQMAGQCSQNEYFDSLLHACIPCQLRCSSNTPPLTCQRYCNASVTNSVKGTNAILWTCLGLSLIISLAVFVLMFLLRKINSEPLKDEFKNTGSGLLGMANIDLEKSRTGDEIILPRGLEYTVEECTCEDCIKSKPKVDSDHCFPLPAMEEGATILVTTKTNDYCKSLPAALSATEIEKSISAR
The experiment in a line: cell-based or functional assay.

The next test deals with T2, human serum albumin (human, UniProt P02768 25-609).
T2 construct: Bought reagent; also called HSA
T2 sequence (P02768 25-609 limits assumed): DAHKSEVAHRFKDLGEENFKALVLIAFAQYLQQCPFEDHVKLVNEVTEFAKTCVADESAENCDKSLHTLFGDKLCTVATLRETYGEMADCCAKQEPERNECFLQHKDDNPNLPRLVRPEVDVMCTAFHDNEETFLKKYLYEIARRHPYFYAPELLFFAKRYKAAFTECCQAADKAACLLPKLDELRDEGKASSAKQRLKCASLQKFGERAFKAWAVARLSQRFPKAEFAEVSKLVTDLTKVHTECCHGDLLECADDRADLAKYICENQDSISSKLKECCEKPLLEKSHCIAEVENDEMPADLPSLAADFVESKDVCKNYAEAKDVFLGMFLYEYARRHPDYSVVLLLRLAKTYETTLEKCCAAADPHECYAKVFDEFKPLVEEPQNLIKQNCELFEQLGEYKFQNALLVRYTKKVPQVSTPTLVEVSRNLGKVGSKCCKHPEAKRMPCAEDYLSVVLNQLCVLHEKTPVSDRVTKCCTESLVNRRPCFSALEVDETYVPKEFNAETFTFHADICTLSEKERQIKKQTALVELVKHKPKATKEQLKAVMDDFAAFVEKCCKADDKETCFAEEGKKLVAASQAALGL
The experiment in a line: binding to human serum albumin, Fig. 19; method not described.

Test [1] deals with T3, human B7H4 (human, UniProt Q7Z7D3 25-282).
T3 sequence (looked up): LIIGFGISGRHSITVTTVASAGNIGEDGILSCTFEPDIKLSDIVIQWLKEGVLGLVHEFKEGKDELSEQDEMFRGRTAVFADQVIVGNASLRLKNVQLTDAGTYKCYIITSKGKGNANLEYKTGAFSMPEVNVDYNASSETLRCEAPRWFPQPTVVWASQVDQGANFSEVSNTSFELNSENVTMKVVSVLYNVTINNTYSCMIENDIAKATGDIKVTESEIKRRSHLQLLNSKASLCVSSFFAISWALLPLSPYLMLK
The experiment in a line: cell-based or functional assay.

For test [2], the target named is T3, human B7H4. The experiment in a line: flow cytometry (FACS) on SK-BR-3 cells with high B7H4 expression. Background: In flow cytometry, cells or beads pass a laser one at a time.

Chain of human ROR1 (Q01973 30-937): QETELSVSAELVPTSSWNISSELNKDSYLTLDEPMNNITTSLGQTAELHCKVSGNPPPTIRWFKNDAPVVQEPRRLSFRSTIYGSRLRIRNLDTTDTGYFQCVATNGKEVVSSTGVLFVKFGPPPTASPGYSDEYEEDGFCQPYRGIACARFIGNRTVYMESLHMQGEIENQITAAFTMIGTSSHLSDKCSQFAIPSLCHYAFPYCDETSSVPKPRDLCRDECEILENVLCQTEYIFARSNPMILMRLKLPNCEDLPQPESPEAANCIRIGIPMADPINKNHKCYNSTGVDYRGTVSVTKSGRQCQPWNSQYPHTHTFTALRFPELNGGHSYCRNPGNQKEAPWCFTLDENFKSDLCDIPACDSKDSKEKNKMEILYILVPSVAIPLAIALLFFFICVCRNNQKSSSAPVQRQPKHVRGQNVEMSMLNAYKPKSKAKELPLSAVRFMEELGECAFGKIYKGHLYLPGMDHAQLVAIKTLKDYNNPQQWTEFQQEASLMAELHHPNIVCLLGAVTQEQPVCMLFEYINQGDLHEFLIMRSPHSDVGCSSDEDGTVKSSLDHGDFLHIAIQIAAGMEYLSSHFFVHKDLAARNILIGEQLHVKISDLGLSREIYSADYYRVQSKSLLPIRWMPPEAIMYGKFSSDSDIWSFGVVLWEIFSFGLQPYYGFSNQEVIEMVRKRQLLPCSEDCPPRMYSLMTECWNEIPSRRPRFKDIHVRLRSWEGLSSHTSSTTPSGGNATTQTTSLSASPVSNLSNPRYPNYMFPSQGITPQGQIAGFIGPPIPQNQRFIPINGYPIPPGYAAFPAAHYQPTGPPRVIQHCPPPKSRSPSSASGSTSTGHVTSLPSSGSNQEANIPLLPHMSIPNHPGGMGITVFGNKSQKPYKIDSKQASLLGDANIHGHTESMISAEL
Chain of PSMA (Q04609 whole entry): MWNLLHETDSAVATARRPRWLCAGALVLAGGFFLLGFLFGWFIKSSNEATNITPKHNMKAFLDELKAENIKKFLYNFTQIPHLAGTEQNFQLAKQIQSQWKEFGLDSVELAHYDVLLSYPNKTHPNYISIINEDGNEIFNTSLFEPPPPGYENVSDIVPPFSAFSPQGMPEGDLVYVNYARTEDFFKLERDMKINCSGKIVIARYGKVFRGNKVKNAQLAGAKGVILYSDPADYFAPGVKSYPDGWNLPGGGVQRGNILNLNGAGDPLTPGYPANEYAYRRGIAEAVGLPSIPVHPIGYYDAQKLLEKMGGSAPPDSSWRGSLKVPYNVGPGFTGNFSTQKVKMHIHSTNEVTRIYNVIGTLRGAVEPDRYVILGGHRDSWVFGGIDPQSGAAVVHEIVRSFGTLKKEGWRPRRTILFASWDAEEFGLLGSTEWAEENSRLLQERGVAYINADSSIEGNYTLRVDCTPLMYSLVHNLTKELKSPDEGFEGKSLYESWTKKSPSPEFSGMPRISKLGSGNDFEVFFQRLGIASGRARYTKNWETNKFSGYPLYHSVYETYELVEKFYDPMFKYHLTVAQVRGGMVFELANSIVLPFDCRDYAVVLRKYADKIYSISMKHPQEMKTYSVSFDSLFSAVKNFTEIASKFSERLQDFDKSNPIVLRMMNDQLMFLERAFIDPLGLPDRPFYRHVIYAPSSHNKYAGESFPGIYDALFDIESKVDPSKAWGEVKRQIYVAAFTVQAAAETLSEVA

B1: PR001197 (bispecific antibody)
chain 1: QVQLVESGGGLVKPGESLRLSCAASGFTFSDYYMYWVRQAPGKGLEWVAIISDGGYYTYYSDIIKGRFTISRDNAKNSLYLQMNSLKAEDTAVYYCARGFPLLRHGAMDYWGQGTLVTVSSASTKGPSVFPLAPSSKSTSGGTAALGCLVKDYFPEPVTVSWNSGALTSGVHTFPAVLQSSGLYSLSSVVTVPSSSLGTQTYICNVNHKPSNTKVDKKVEPKSC
chain 2: DIQMTQSPSSLSASVGDRVTITCKASQNVDTNVAWYQQKPGQAPKSLIYSASYRYSDVPSRFSGSASGTDFTLTISSVQSEDFATYYCQQYDSYPYTFGGGTKLEIKRTVAAPSVFIFPPSDEQLKSGTASVVCLLNNFYPREAKVQWKVDNALQSGNSQESVTEQDSKDSTYSLSSTLTLSKADYEKHKVYACEVTHQGLSSPVTKSFNRGECEVQLVESGGGLVQPGGSLKLSCAASGFTFNTYAMNWVRQASGKGLEWVGRIRSKYNNYATYYADSVKDRFTISRDDSKSTLYLQMNSLKTEDTAVYYCVRHGNFGNSYVSWFAYWGQGTLVTVSSASTKGPSVFPLAPSSKSTSGGTAALGCLVKDYFPEPVTVSWNSGALTSGVHTFPAVLQSSGLYSLSSVVTVPSSSLGTQTYICNVNHKPSNTKVDKKVEPKSC
light: QAVVTQEPSLTVSPGGTVTLTCRSSTGAVTTSNYANWVQQKPGQAPRGLIGGTNKRAPWTPARFSGSLLGDKAALTLLGAQPEDEAEYFCALWYSNLWVFGGGTKLTVLGQPKAAPSVTLFPPSSEELQANKATLVCLISDFYPGAVTVAWKADSSPVKAGVETTTPSKQSNNKYAASSYLSLTPEQWKSHRSYSCQVTHEGSTVEKTVAPTECS
For the molecule B1, in the test with PSMA, the “Cell killing EC50” value is 0.143 nM and the “Maximum killing rate (%)” value was determined as 52.4%.

B2: PR001200 (bispecific antibody)
chain 1: EVQLVESGGGLVQPGRSLRLSCTASGSDINDYPITWVRQAPGQGLEWIGFINSGGSTWYASWVKGRFTISRDDSKSIAYLQMNSLKTEDTAVYYCARGYSTYYRDFNIWGQGTLVTVSSASTKGPSVFPLAPSSKSTSGGTAALGCLVKDYFPEPVTVSWNSGALTSGVHTFPAVLQSSGLYSLSSVVTVPSSSLGTQTYICNVNHKPSNTKVDKKVEPKSC
chain 2: DIQMTQSPSSLSASVGDRVTINCQASQSIDSNLAWFQQKPGQPPKLLIYRASNLASGVPDRFSGSGSGTDFTLTISSLEAEDVATYYCLGGVGAVSYRTSFGGGTKVEIKRTVAAPSVFIFPPSDEQLKSGTASVVCLLNNFYPREAKVQWKVDNALQSGNSQESVTEQDSKDSTYSLSSTLTLSKADYEKHKVYACEVTHQGLSSPVTKSFNRGECEVQLVESGGGLVQPGGSLKLSCAASGFTFNTYAMNWVRQASGKGLEWVGRIRSKYNNYATYYADSVKDRFTISRDDSKSTLYLQMNSLKTEDTAVYYCVRHGNFGNSYVSWFAYWGQGTLVTVSSASTKGPSVFPLAPSSKSTSGGTAALGCLVKDYFPEPVTVSWNSGALTSGVHTFPAVLQSSGLYSLSSVVTVPSSSLGTQTYICNVNHKPSNTKVDKKVEPKSC
light: B1 light
For B2, in the test with human ROR1, the “Cell killing EC50” value stood at 1.16 nM and the “Maximum killing rate (%)” value worked out at 54.8%.

B3: PR001198 (bispecific antibody)
chain 1: QVQLVQSGAEVKKPGSSVKVSCKASGGTFSNYWMHWVRQAPGQGLEWMGATYRGHSDTYYNQKFKGRVTITADKSTSTAYMELSSLRSEDTAVYYCARGAIYDGYDVLDNWGQGTLVTVSSASTKGPSVFPLAPSSKSTSGGTAALGCLVKDYFPEPVTVSWNSGALTSGVHTFPAVLQSSGLYSLSSVVTVPSSSLGTQTYICNVNHKPSNTKVDKKVEPKSC
chain 2: not shown
light: B1 light
As to B3, in the test with BCMA, the “Cell killing EC50” value is 0.0178 nM and the “Maximum killing rate (%)” value is 61.3%.

B4: PR000929 (VHH)
VHH: EVQLLESGGGLVQPGGSLRLSCAASGFTFRSFGMSWVRQAPGKGPEWVSSISGSGSDTLYADSVKGRFTISRDNSKNTLYLQMNSLRPEDTAVYYCTIGGSLSRSSQGTLVTVSS
notes: Humanized single-domain antibody, no Fc; also called anti-HSA Alb23-his; single-domain antibody Alb23
In the case of B4, in the test with human serum albumin, the binding result is reported as “binds”.

B5: PR000317 (bispecific antibody)
chain 1: EVQLVQSGAEVKKPGASVKVSCKASGYTFTSYWIGWVRQAPGQGLEWIGDIYPGGGYTNYNEKFKGRVTITRDTSTSTAYLELSSLRSEDTAVYYCARLAGSSYRGAMDSWGQGTLVTVSSASTKGPSVFPLAPSSKSTSGGTAALGCLVKDYFPEPVTVSWNSGALTSGVHTFPAVLQSSGLYSLSSVVTVPSSSLGTQTYICNVNHKPSNTKVDKKVEPKSC
chain 2: DIQMTQSPSSLSASVGDRVTITCKASQGFNKYVAWYQQKPGKAPKLLIYYTSTLQPGVPSRFSGSGSGRDYTLTISSLQPEDFATYYCLQYGDLLYAFGQGTKVEIKRTVAAPSVFIFPPSDEQLKSGTASVVCLLNNFYPREAKVQWKVDNALQSGNSQESVTEQDSKDSTYSLSSTLTLSKADYEKHKVYACEVTHQGLSSPVTKSFNRGECEVQLVESGGGLVQPKGSLKLSCAASGFTFNTYAMNWVRQAPGKGLEWVARIRSKYNNYATYYADSVKDRFTISRDDSQSILYLQMNNLKTEDTAMYYCVRHGNFGNSYVSWFAYWGQGTLVTVSAASTKGPSVFPLAPSSKSTSGGTAALGCLVKDYFPEPVTVSWNSGALTSGVHTFPAVLQSSGLYSLSSVVTVPSSSLGTQTYICNVNHKPSNTKVDKKVEPKSC
light: QAVVTQESALTTSPGETVTLTCRSSTGAVTTSNYANWVQEKPDHLFTGLIGGTNKRAPGVPARFSGSLIGDKAALTITGAQTEDEAIYFCALWYSNLWVFGGGTKLTVLGQPKAAPSVTLFPPSSEELQANKATLVCLISDFYPGAVTVAWKADSSPVKAGVETTTPSKQSNNKYAASSYLSLTPEQWKSHRSYSCQVTHEGSTVEKTVAPTECS
notes: Three-chain Fab-Fab without Fc; N-terminal Fab-A from PR000157 (anti-B7H4), C-terminal Fab-B from PR000260 (anti-CD3 SP34); also called Anti-B7H4xCD3 1D11-SP34 Fab-Fab; B7H4xCD3 "κ/λ" Fab-Fab antibody
In general, EC50 refers to the concentration needed to bring the measured effect to its halfway point. A high value points to a need for much substance. For the molecule B5, in the test with human B7H4 [1], the “Cell killing EC50” value is 0.0018 nM and the “Maximum killing rate (%)” value was found to be 33.9%. In the test with human B7H4 [2], this molecule returned a half-maximal effective concentration (EC50) of 22 nM.

B6: PR001325 (bispecific antibody)
chain 1: B5 chain 1
chain 2: DIQMTQSPSSLSASVGDRVTITCKASQGFNKYVAWYQQKPGKAPKLLIYYTSTLQPGVPSRFSGSGSGRDYTLTISSLQPEDFATYYCLQYGDLLYAFGQGTKVEIKRTVAAPSVFIFPPSDEQLKSGTASVVCLLNNFYPREAKVQWKVDNALQSGNSQESVTEQDSKDSTYSLSSTLTLSKADYEKHKVYACEVTHQGLSSPVTKSFNRGECEVQLVESGGGLVQPGGSLKLSCAASGFTFNTYAMNWVRQASGKGLEWVGRIRSKYNNYATYYADSVKDRFTISRDDSKSTLYLQMNSLKTEDTAVYYCVRHGNFGNSYVSWFAYWGQGTLVTVSSASTKGPSVFPLAPSSKSTSGGTAALGCLVKDYFPEPVTVSWNSGALTSGVHTFPAVLQSSGLYSLSSVVTVPSSSLGTQTYICNVNHKPSNTKVDKKVEPKSCGGGGSGGGGSEVQLLESGGGLVQPGGSLRLSCAASGFTFRSFGMSWVRQAPGKGPEWVSSISGSGSDTLYADSVKGRFTISRDNSKNTLYLQMNSLRPEDTAVYYCTIGGSLSRSSQGTLVTVSS
light: B1 light
notes: no Fc; also called anti-B7H4xCD3 1D11C2-hzSP34_PR512 Fab-Fab-(G4S)2-Alb23; B7H4xCD3xALB trispecific antibody
For the molecule B6, in the test with human serum albumin, the binding result is recorded as “binds”.
